Results from patent publication US20240228648A1.

Legend:
[1] = biological target: recombinant biotinylated CD38-avi protein (extracellular domain of human CD38) (human) (UniProt P28907); assay: capture ELISA, antibody 3.125 nM, biotinylated CD38-avi 0.5 ug/ml
[2] = biological target: CD38 on the surface of Daudi cells (human) (UniProt P28907); assay: flow cytometry on Daudi cells, antibody 5.56 nM
[3] = biological target: recombinant biotinylated CD38-avi protein (extracellular domain of human CD38) (human) (UniProt P28907); assay: capture ELISA, antibody 50 nM, biotinylated CD38-avi 0.5 ug/ml
[4] = biological target: recombinant biotinylated CD38-avi protein (extracellular domain of human CD38) (human) (UniProt P28907); assay: competitive ELISA, no competitor: plate coated with Darzalex (2 µg/ml); biotinylated CD38 alone, captured CD38 detected with streptavidin-HRP; replicate 1
[5] = biological target: CD38 on the surface of Daudi cells (human) (UniProt P28907); assay: cell-based or functional assay
[6] = biological target: recombinant biotinylated CD38-avi protein (extracellular domain of human CD38) (human) (UniProt P28907); assay: competitive ELISA, no competitor: plate coated with Darzalex (2 µg/ml); biotinylated CD38 alone, captured CD38 detected with streptavidin-HRP; replicate 2
[7] = biological target: recombinant biotinylated CD38-avi protein (extracellular domain of human CD38) (human) (UniProt P28907); assay: capture ELISA: antibody captured by anti-human Fc, biotinylated CD38-avi 0.5 ug/ml, fit in GraphPad Prism
[8] = biological target: CD38 on the surface of Daudi cells (human) (UniProt P28907); assay: flow cytometry on Daudi cells, anti-human IgG-Alexa647, fit in GraphPad Prism
[9] = biological target: recombinant biotinylated CD38-avi protein (extracellular domain of human CD38) (human) (UniProt P28907); assay: competitive ELISA: plate coated with Darzalex (2 µg/ml); biotinylated CD38 (0.2 µg/ml) pre-incubated with soluble Darzalex (15 µg/ml), captured CD38 detected with streptavidin-HRP; replicate 2
[10] = biological target: CD38 on the surface of Daudi cells (human) (UniProt P28907); assay: flow cytometry on Daudi cells, antibody 1.617 nM (so in the source)
[11] = biological target: recombinant biotinylated CD38-avi protein (extracellular domain of human CD38) (human) (UniProt P28907); assay: capture ELISA, antibody 0.781 nM, biotinylated CD38-avi 0.5 ug/ml
[12] = biological target: recombinant biotinylated CD38-avi protein (extracellular domain of human CD38) (human) (UniProt P28907); assay: capture ELISA, antibody 0.195 nM, biotinylated CD38-avi 0.5 ug/ml
[13] = biological target: recombinant biotinylated CD38-avi protein (extracellular domain of human CD38) (human) (UniProt P28907); assay: capture ELISA, antibody 0.049 nM, biotinylated CD38-avi 0.5 ug/ml
[14] = biological target: recombinant biotinylated CD38-avi protein (extracellular domain of human CD38) (human) (UniProt P28907); assay: capture ELISA, antibody 0 nM (background), biotinylated CD38-avi 0.5 ug/ml
[15] = biological target: CD38 on the surface of Daudi cells (human) (UniProt P28907); assay: flow cytometry on Daudi cells, antibody 0.206 nM
[16] = biological target: recombinant biotinylated CD38-avi protein (extracellular domain of human CD38) (human) (UniProt P28907); assay: capture ELISA, antibody 12.5 nM, biotinylated CD38-avi 0.5 ug/ml
[17] = biological target: CD38 on the surface of Daudi cells (human) (UniProt P28907); assay: flow cytometry on Daudi cells, antibody 1.85 nM
[18] = biological target: CD38 on the surface of Daudi cells (human) (UniProt P28907); assay: flow cytometry on Daudi cells, antibody 300 nM
[19] = biological target: recombinant biotinylated CD38-avi protein (extracellular domain of human CD38) (human) (UniProt P28907); assay: capture ELISA, antibody 0.012 nM, biotinylated CD38-avi 0.5 ug/ml
[20] = biological target: CD38 on the surface of Daudi cells (human) (UniProt P28907); assay: flow cytometry on Daudi cells, antibody 0.069 nM
[21] = biological target: recombinant biotinylated CD38-avi protein (extracellular domain of human CD38) (human) (UniProt P28907); assay: competitive ELISA: plate coated with Darzalex (2 µg/ml); biotinylated CD38 (0.2 µg/ml) pre-incubated with soluble Darzalex (15 µg/ml), captured CD38 detected with streptavidin-HRP; replicate 1
[22] = biological target: CD38 on the surface of Daudi cells (human) (UniProt P28907); assay: flow cytometry on Daudi cells, antibody 16.7 nM
[23] = biological target: CD38 on the surface of Daudi cells (human) (UniProt P28907); assay: flow cytometry on Daudi cells, antibody 50 nM

Darzalex (antibody) showed an OD450 [1] of 0.172 OD450, a Mean fluorescence [2] of 1.09e+06 and an OD450 [3] of 0.171 OD450. For the same substance, the OD450 [4] was 0.377, the ADCC activity (luciferase) on Daudi cells at 0.0015 nM antibody [5] was 0.12 and the ADCC activity (luciferase) on Daudi cells at 0.006 nM antibody [5] was 1.32. For the same substance, the ADCC activity (luciferase) on Daudi cells at 0.0244 nM antibody [5] was 3.88, the ADCC activity (luciferase) on Daudi cells at 0.098 nM antibody [5] was 14.7 and the ADCC activity (luciferase) on Daudi cells at 0.39 nM antibody [5] was 40.9. For the same substance, the ADCC activity (luciferase) on Daudi cells at 1.56 nM antibody [5] was 57.2, the ADCC activity (luciferase) on Daudi cells at 6.25 nM antibody [5] was 61 and the ADCC activity (luciferase) on Daudi cells at 25 nM antibody [5] was 64.1. It also gave an ADCC activity (luciferase) on Daudi cells at 100 nM antibody [5] of 66.5, a CDC: % live Daudi cells (P1) at 0.078 nM antibody [5] of 63.9% and a CDC: % live Daudi cells (P1) at 0.156 nM antibody [5] of 75.2%. The CDC: % live Daudi cells (P1) at 0.3125 nM antibody [5] was 70.6%, the CDC: % live Daudi cells (P1) at 0.625 nM antibody [5] was 67.4% and the CDC: % live Daudi cells (P1) at 1.25 nM antibody [5] was 55.6%. The CDC: % live Daudi cells (P1) at 2.5 nM antibody [5] was 47.6%, the CDC: % live Daudi cells (P1) at 5 nM antibody [5] was 40.9% and the CDC: % live Daudi cells (P1) at 10 nM antibody [5] was 32.3%. For the same substance, the OD450 [6] was 0.385, the Kd [7] was 1.64 nM and the Kd [8] was 3.26 nM. For the same substance, the OD450 [9] was 0.176, the Mean fluorescence [10] was 158000 and the OD450 [11] was 0.145 OD450. The OD450 [12] was 0.135 OD450, the OD450 [13] was 0.147 OD450 and the OD450 [14] was 0.143 OD450. The Mean fluorescence [15] was 46700, the OD450 [16] was 0.164 OD450 and the Mean fluorescence [17] was 574000. For the same substance, the Mean fluorescence [18] was 1.29e+06, the OD450 [19] was 0.135 OD450 and the Mean fluorescence [20] was 9320. It also gave an OD450 [21] of 0.168, a Mean fluorescence [22] of 1.34e+06 and a Mean fluorescence [23] of 1.31e+06.
